By Km is commonly meant the substrate concentration at which the rate is half of its maximum. Broadly, the kcat is the maximal rate divided by the concentration of active sites.

Changes are numbered by the printed parent chain. In names and notes the source's numbering stands.

The source of these data is PMC5773619, “Specific cyclic ADP-ribose phosphohydrolase obtained by mutagenic engineering of Mn^2+-dependent ADP-ribose/CDP-alcohol diphosphatase” (Scientific Reports, 2018).

Holding throughout (format): biochemical, Homo sapiens
Details in all cases: 50 mM Tris-HCl pH 7.5, 0.4 mM MnCl2, 0.1 mg/ml BSA, 37 °C

Substrate in series [1]: N=c1c2ncn3c2ncn1[C@@H]1O[C@H](COP(=O)(O)OP(=O)(O)OC[C@H]2O[C@@H]3[C@H](O)[C@@H]2O)[C@@H](O)[C@H]1O
Briefly: HPLC assay of pRibAMP formation. The source says: HPLC assay of pRibAMP formation on human ADPRibase-Mn | displaying a decreased kcat for cADPR (Supplementary Table S1)

Substrate in series [2]: C[N+](C)(C)CCOP(=O)(O)OP(=O)([O-])OC[C@H]1O[C@@H](n2ccc(N)nc2=O)[C@H](O)[C@@H]1O
Kind of series: colorimetric phosphate assay coupled to alkaline phosphatase.

Substrate in series [3]: Nc1ncnc2c1ncn2[C@@H]1O[C@H](CO)[C@H]2OP(=O)(O)O[C@H]21
Described as above.

Substrate in series [4]: N=c1c2ncn3c2ncn1[C@@H]1O[C@H](COP(=O)(O)OP(=O)(O)OC[C@H]2O[C@@H]3[C@H](O)[C@@H]2O)[C@@H](O)[C@H]1O
Briefly: HPLC assay of pRibAMP formation, initial rates, Michaelis-Menten fit.

Substrate in series [5]: C[N+](C)(C)CCOP(=O)(O)OP(=O)([O-])OC[C@H]1O[C@@H](n2ccc(N)nc2=O)[C@H](O)[C@@H]1O
Kind of series: colorimetric phosphate assay coupled to alkaline phosphatase, Michaelis-Menten fit.

Substrate in series [6]: Nc1ncnc2c1ncn2[C@@H]1O[C@H](CO)[C@H]2OP(=O)(O)O[C@H]21
The series is described as above.

B1: human ADPRibase-Mn (Homo sapiens; C253V) (protein)
chain: MDDKPNPEALSDSSERLFSFGVIADVQFADLEDGFNFQGTRRRYYRHSLLHLQGAIEDWNNESSMPCCVLQLGDIIDGYNAQYNASKKSLELVMDMFKRLKVPVHHTWGNHEFYNFSREYLTHSKLNTKFLEDQIVHHPETMPSEDYYAYHFVPFPKFRFILLDAYDLSVLGVDQSSPKYEQCMKILREHNPNTELNSPQGLSEPQFVQFNGGFSQEQLNWLNEVLTFSDTNQEKVVIVSHLPIYPDASDNVVLAWNYRDALAVIWSHECVVCFFAGHTHDGGYSEDPFGVYHVNLEGVIETAPDSQAFGTVHVYPDKMMLKGRGRVPDRIMNYKKERAFHC
notes: human liver cDNA, pGEX-6P-3-hADPRM, E. coli BL21; GST tag removed with PreScission protease, N-terminal extension … kept
B1: the Km is 0.56 ± 0.18 mM in series [1], 1,120 ± 115 µM in series [2] and 2,380 ± 250 µM in series [3]. Also, the kcat in series [1] came out at 1.6 ± 0.1 s⁻¹; in series [2], 109 ± 9 s⁻¹; in series [3] it was 148 ± 8 s⁻¹.

B2: human ADPRibase-Mn (Homo sapiens; C253G/F37A/L196F/V252A) (protein)
chain: B1 chain with F37A, L196F, V252A, V253G
notes: as for B1
On to B2, for which the Michaelis-Menten constant (Km) in series [4] stood at 0.14 mM; in series [5], 10.6 mM; in series [6] it was 8.7 mM. Besides, the kcat in series [4] was found to be 13 s⁻¹; in series [5], 37 s⁻¹; in series [6], 12 s⁻¹.
